Reference: the RNAGym collection of RNA variant scans (doi:10.1021/acssynbio.7b00057)

B1: Pistol ribozyme (parent)
chain: GGGUCGUUGUUCCAUAAUCGCGUGGAUAUGGCACGCAAGUUUCUACCGGGCACCGUAAAUGUCCGACUGGAGCCGUUCGGGCGGCUAUAAACAGACCUCAGGCCCGAAGCGUGGCGGCACCUGCCGCCGGUGGUAAAAAAGAUCGGAAGAGCACACGUCU

Variants of: B1
Assay: aptazyme ON/OFF ratio, guanine; higher = stronger switching; co-transcriptional cleavage with and without guanine

Point of comparison: U8C G9C U10C C12A, “aptazyme ON/OFF ratio” value 1.06. Against it:
- U8C G9U U11C C13A — lower, 1.03
- U7G U8C G9A U10G U11A C12A C13U — higher, 1.11
- U8A G9A U10A U11A C12U — higher, 1.13
- U7A U8C U10A C12G C13G — higher, 1.23
- U7C G9U U11A C12U C13A — higher, 1.32
- U8C G9A U11G C12A C13G — higher, 1.29
- U7A U8C G9A U10C U11A C12G C13G — higher, 1.22
- U7G G9U U10G U11G — higher, 1.74
- U7A U11G C12G — higher, 1.27
- U7A U8G U10G U11A C12G C13A — higher, 1.24
- U8C G9C U10A U11G — higher, 1.16
- U7A U8A G9C U10C U11A — lower, 0.719
- U7C U8A G9U U10A U11A C12A C13G — higher, 1.18
- G9A U10C U11G C12A C13A — higher, 1.22
- U7A G9U U10G U11G C12G C13G — higher, 1.4
- U7C U8A G9A U10A C12U — higher, 1.22
- U7G G9U U11G C12A — higher, 1.82
- U7C U8A C13U — higher, 1.71
- U7C U8A G9A U11G C13U — higher, 1.25
- G9U U10A U11G C12A C13G — higher, 1.37
- U8G G9A U10A U11A C12A C13U — higher, 1.26
- U7C U8C U10A U11C C12U — lower, 1.05
- U7G U8A U10G U11C — higher, 2.11
- U7A U8C G9U U10A U11A C12U C13U — higher, 1.16
- U7A U8A G9C U10G U11A C13G — higher, 1.09
- U7A U8G G9U U10G C12G C13U — higher, 1.3
- U7C U8A G9A U10G U11A C12A C13G — higher, 1.17
- U7G G9A U10A U11A C12A C13U — higher, 1.11
- U7C U8A G9A U11A C12G — higher, 1.2
- U8G G9U U10G C12A — lower, 1.04
- U7G U8G G9A U10A U11C C13U — lower, 1.05
- U7G U8G G9C U11G C12U C13G — lower, 1.05
- U7G G9A U10C U11G C12G C13U — the same, 1.06
- U7C U8C U10C C12U C13G — higher, 1.34
- U11G C12U C13G — lower, 1.04
- U7G U8G G9U U10C C12A C13G — higher, 1.29
- U7A U10C U11C C13U — lower, 1.03
- U7G U8C G9C U10C U11A C12G C13G — higher, 1.17
- U7G U8A G9U U10G U11G C12U C13U — higher, 1.12
- U7G U11A C12G C13G — higher, 1.11
- U8A U11C C12A C13A — higher, 1.24
- U7A U8C U10C C12G C13A — higher, 1.34
- U8G G9U U11C C12G C13A — lower, 1.04
- G9C U10G C12A — higher, 1.3
- U7A U8C G9A U10A C12A — higher, 1.26
- U7A G9A U11C C12G C13A — higher, 1.18
- U7G U8C G9A U11A C12G C13A — lower, 1.05
- U7A U8G U10C U11A C12U C13A — higher, 1.35
- U7C U8C G9C U10C C12G C13U — lower, 1.04
- G9A U10G U11C C12G C13G — higher, 1.27
- U8A G9C U10G — higher, 1.54
- U7C U8A G9C U10C C12A C13A — lower, 1.05
- U7C U8A G9C U10C C12A C13G — higher, 1.07
- U7G G9C U10C U11G C13G — higher, 1.17
- U10C C12U — higher, 2.09
- U7G U8G G9C U10G C12A C13U — higher, 1.14
- G9U U11G C12G C13U — higher, 1.21
- U7C U8A G9A U10G U11C C12A C13A — higher, 1.15
- U7A G9U U11A C12A C13A — higher, 1.39
- U7A U8A G9A U10G U11G C12U C13U — higher, 1.14
- U7G U8C G9U U10C U11G C13G — higher, 1.09
- U7A G9C U10G U11G C13A — higher, 1.13
- U7A U8A U10A U11G C12G C13G — higher, 1.6
- U7A U8A G9U U10C U11C C12G — the same, 1.06
- U8C G9C U10C U11A C12A C13A — lower, 1.04
- U7G U8A G9U U10C C12G C13A — higher, 1.28
- U7G U8A G9C U10G U11C C12U C13G — lower, 1.03
- U7G G9U U10A U11C C12U C13U — higher, 1.39
- U7G U8A G9A U10A C12A C13A — higher, 1.2
- U8C G9U U10C C13A — lower, 1.03
- G9C U10G U11G C12U C13G — higher, 1.08
- U7C G9U U11A C12G — higher, 1.33
- U7A U11G C12A C13U — higher, 1.25
- U7G U8G U10G U11C C12U C13U — higher, 1.36
- U7A U10G C12G C13U — higher, 1.2
- U8G G9A U10C C12G C13G — higher, 1.2
- U8C G9A U10G U11C C12G C13A — higher, 1.18
- U7G U8A G9U U11A C12U — higher, 1.17
- U7G G9C U10A U11G C12G C13A — higher, 1.1
- U8A G9A U10G C12G C13A — higher, 1.14
- U8G G9U U11A C12U C13A — higher, 1.19
- U7A U8A G9U U11G C13A — higher, 1.13
- U7A U8G G9A U11C C12U — higher, 1.39
